Assay results as given in PMC7617694 (Molecular cell, 2025).

T1: Recombinant human CXCL3 (human, UniProt P19876 35-107)
T1 sequence: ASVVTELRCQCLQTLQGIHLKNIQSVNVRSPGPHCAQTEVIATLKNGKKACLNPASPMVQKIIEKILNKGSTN

T2: Recombinant human CXCL2 (human, UniProt P19875 35-107)
T2 sequence: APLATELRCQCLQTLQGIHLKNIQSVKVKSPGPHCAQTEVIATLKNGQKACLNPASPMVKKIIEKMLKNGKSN

T3: Recombinant human CXCL1 (human, UniProt P09341 35-107)
T3 sequence: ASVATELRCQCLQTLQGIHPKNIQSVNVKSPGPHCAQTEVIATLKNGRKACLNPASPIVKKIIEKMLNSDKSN


What was measured:
Assay in all cases: cryo-EM structure
[1] = target: Recombinant human CXCL5 (human)
[2] = target: T1, Recombinant human CXCL3
[3] = target: T2, Recombinant human CXCL2
[4] = target: T3, Recombinant human CXCL1

Sequence of Recombinant human CXCL5 (ligand) (P42830 37-114): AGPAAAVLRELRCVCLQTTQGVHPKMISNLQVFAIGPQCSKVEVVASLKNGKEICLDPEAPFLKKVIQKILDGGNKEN

stoichiometry N [1] | binding result [2] | binding result [3] | binding result [4] | Molecule
2 |  |  |  | Recombinant human CXCL5 (ligand)
 | binds | binds | binds | C-X-C chemokine receptor 2 (CXCR2), FLAG-tagged, purified from Sf9 cells (receptor) ANFTPVNGSSGNQSVRLVTSSSMEDFNMESDSFEDFWKGEDLSNYSYSSTLPPFLLDAAPCEPESLEINKYFVVIIYALVFLLSLLGNSLVMLVILYSRVGRSVTDVYLLNLALADLLFALTLPIWAASKVNGWIFGTFLCKVVSLLKEVNFYSGILLLACISVDRYLAIVHATRTLTQKRYLVKFICLSIWGLSLLLALPVLLFRRTVYSSNVSPACYEDMGNNTANWRMLLRILPQSFGFIVPLLIMLFCYGFTLRTLFKAHMGQKHRAMRVIFAVVLIFLLCWLPYNLVLLADTLMRTQVIQETCERRNHIDRALDATEILGILHSCLNPLIYAFIGQKFRHGLLKILAIHGLISKDSLPKDSRPSFVGSSSGHTSTTL
